The DeepSol protein solubility set

test: soluble on expression in E. coli; label from the status in PepcDB or PDB records

Sequence	soluble on expression in E. coli
MGDSEIYVSLDIGTASVKVIIAEMADDRLNIIGVGNVESSGIKKGIIIDIDKTVESIKKAIEQAERMVGVEISQVIVGVVSSQVHLEACRGIVAVGSENREITDEDVWNVMDAAQVVPLSPEREIINTIPDQFVVDGLTGITDPRGMIGVRLEMEGTLITGSKTILHNTLRCVERAGLEISDIALQPLAEASISLSEDDKEFGTALVNIGAGTTTVSVFEQGRLTYTGVIPVGGDNITKDLSLGLNTSTANADRVKLEHGYAFYDDASPDEVFAIDVIGSDQKQHFTQVEVADIIEARMEEIFQLVVEELNRVGKTHLPGGYVLTGGSMAIPGAIDLAGKTLAAHVRLAIPDYIGVREPSFTTAVGLIKYAYQMAELEGRDVSSTASEPRYDDEAPKQPKQKPKKSDDEKVSTKMKNFFGAFFE	not soluble
MGDSFYIRTHFELEPSPPSGLGFTRGDVFHVLDTLHPGPGQSHARGGHWLAVRMGRDLREQERGIIPNQSRAEQLASLEAAQRAVGVGPGSSAGSNARAEFWRLRGLRRGAKKTTQRSREDLSALTRQGRYPPYERVVLREASFKRPVVILGPVADIAMQKLTAEMPDQFEIAETVSRTDSPSKIIKLDTVRVIAEKDKHALLDVTPSAIERLNYVQYYPIVVFFIPESRPALKALRQWLAPASRRSTRRLYAQAQKLRKHSSHLFTATIPLNGTSDTWYQELKAIIREQQTRPIWTAEDQLHHHHHH	soluble
MGEKLLMKGNEAIAEAALRAGCRHYFGYPITPQTEIAHYLAKKMPEVGGTFIQAESEVAAINMVYGAASAGARVLTSSSSPGISLKQEGLSYLAGAELPAVVVNIVRCGPGLGGILPAQGDYFQAVKGGGHGDYKMVVLAPSSVQELYELTVEAFNIADRYRIVSMIMGDGILGQMMEAVEFKDVENIEKIDKPWATTGTQMKREHNTITSIYIQPEVLEKHNQKLQAKYRLIEERETRVESYNCENADIIVTAFGTVARIVKNVIKMAEKEGIKVGLIRPITLWPFPTKEYEKYADVPKAFLTVELNAGQMVEDVRLAVNGKKPVYFHGRMGGMIPTQKEILDKIKEILNN	not soluble
MGELIYGEVKKQTKDGFIIDLGDNAEAYLAREEMIAKEILRPKQRMNAILYSVNREGRGAQLLLSRALEHHHHHH	not soluble
MGELTDALLGKGALKTRFGSLLGQGDWGGVRVSQVEVRWVIFCLLHWLHVNLPVTEYLALDVLFPLAIVQKHSIL	not soluble
MGESGLFDTPDQKVGLTGRPLREFPEPEPLHKHGPAKIISMCNQKGGVGKTTSTINLGACLAEAGRKVLLVDLDPQGALSAGLNIPHEELEITVYNLLVDRHTSIHQAIHHTSVDGLDLVPANIDLSAAEIQLVNEVGREQTLARALRPVMRDYDFIILDCQPSLGLLTVNALTCSHGVIIPMECEYFSLRGLALLTDTVEKVRDRLNFDLEIVGILVTMFDRRTTHAREVMSRVVEVFEDRVFDTVITRTVRFPETSVAGEPITTWAPSSQGAQQYRQLAREVIERTA	not soluble
MGEYYHATVNGVVEYGAFVDLSEHVSGLIHESTYSGDPDLAVDDDVIVHLSAVRDNGDLSFEFVDPEEYRTEQRSLEHHHHHH	not soluble
MGFPIPDPYVWDPSFRTFYSIIDDEHKTLFNGIFHLAIDDNADNLGELRRCTGKHFLNEQVLMQASQYQFYDEHKKEHETFIHALDNWKGDVKWAKSWYVNHIKTIDFKYKGKI	soluble
MGFTLKSLEFLQGVEPFRIDENHENEGASEEEEVLISAETDAGMSLMLEWKMRLSEDSDQCTTCNCPVDFGDRAVLLEHYQSLFHRTNTLRKARNMTVYTEEDFEGIENSENDLTSSQTTIGLESDDEEFDALLLPANRSFFIKNGSVFSVPRNILHVGERDVSSVTFLRPFDCAIFLWNGGHFAAAMFENDKMTVQKSFHRYVARAKQGGVQSQHDSGGKGAAKSAGAQLRRYNEQKMKEEIQSIMSSWKSRLQKTPLLFIRCAAYHRNIFFEADAGIETRDDRIRTIPFETKRPNIDEISDCWQRLQQVSEHGAESDFRAEMLEVREKRKKLARKVAGKKRKDGGMQMICEWSDDDENEDISKEKKTHHIKVRTIKKPEETVVQWPRLDDEWRQKTYNYVRQDSVEALKEHLASLNEDVTSEANDYLRNAKIPPNRSTFLHVSAANDARKCLKYFLEEVNCDSSTKDGAGLPPYSSSANSDVKSIFIDYRVKNETAGNWARTHIPEPKKKVELTEEQEREQAERKKEKKARQKEKEKLKKEIAKRDVEEMEERQKYVNMSEREKRALAVDRRLAGLPPILRCHQCGVQLPPTPFQYSHYNFCSTSCVAEHRKANPQ	not soluble
MGFYLTSRIMKNIKSQGNGEQPAISRRHFIQASSALIALPFVSSPATAQARAVTATENRPAEKVVQTCSTFDCGGKCDIRAHVSDGIVTRISTRPDNALDAQMPVMRACVRGRAYRKFVYHPDRLKYPMKRVGKRGEGKFERISWDEATTLIADNLKSITEKYGPASRYVHVGTAVSGGTFSGDKMARRLLNLTGGYLESYHSVSMGNTAAATPYTYGIAASGSSLDTLLDTKLVILWGHNPTETIFGHTNYFLQKMKQNGTRFIVVDPRYSDTVSSLADQWIPLLPTTDNALMDAMMYVIISENLHDRAFIARYAIGFDEDSMPEGVPANESLVAYLTGAKDGVVKSPEWAEKITHVPAQTIRQLARDYANTKPAALIQGWGPQRHNCGERTARGSTLLATITGNVGIKGGWAAGYGGCANRKFAAGPEMPDNPVKAKISVMNWVQAADDASKVTPDMGLKDADKLDSNIRILFSLAGNYLANQNPDLHQAVRVLEDESKIQFIVASDLFMTPSAKYADLLLPETSFMERWNIGETWGTASYLILSEKLIEPEFERRSDYDWLREVAAKLGIENEFSQGRDEKAWIEHIWEQTRLAMPDENLPDFATLQKTRQHLFKSAPFIAFEDNIRDPENHPFPTPSGKIEIFSKRLYDMQHPEIPALSHYVPAHEGPEDALAKDFPLQLITWKGKNRANSTQYANPWLIEVQQQTLWINPQDAQKRGITHGDMVRIHNSRGICEIPAEVTPRIIPGVVAMQAGAWWQPDENGVDKGGCANVLSSARITALAKGNSHQTMLVEVAKA	not soluble
MGGAVEVSATINNVGNYNAEEVVQLYIRDIVGNVTRPIKELKGFQRITLGKGESMVVTFKLHTDELAFYNQQMEYKPEAGLFHVWIGGDSSTTLKTEFEVTDLEHHHHHH	not soluble
MGGDSKGTYCGAPILGPGSAPKLSTKTKFWRSSTTPLPPGTYEPAYLGGKDPRVKGGPSLQQVMRDQLKPFTEPRGKPPKPSVLEAAKKTIINVLEQTIDPPEKWSFTQACASLDKTTSSGHPHHMRKNDCWNGESFTGKLADQASKANLMFEGGKNMTPVYTGALKDELVKTDKIYGKIKKRLLWGSDLATMIRCARAFGGLMDELKAHCVTLPIRVGMNMNEDGPIIFERHSRYKYHYDADYSRWDSTQQRAVLAAALEIMVKFSSEPHLAQVVAEDLLSPSVVDVGDFKISINEGLPSGVPCTSQWNSIAHWLLTLCALSEVTNLSPDIIQANSLFSFYGDDEIVSTDIKLDPEKLTAKLKEYGLKPTRPDKTEGPLVISEDLNGLTFLRRTVTRDPAGWFGKLEQSSILRQMYWTRGPNHEDPSETMIPHSQRPIQLMSLLGEAALHGPAFYSKISKLVIAELKEGGMDFYVPRQEPMFRWMRFSDLSTWEGDRNLAPSFVNEDGVEVDKLAAALEHHHHHH	soluble
